The results in this text go back to patent publication US20030211587A1 (University of Texas, published 2003).

This data set concerns the molecule itself. Nature of the data set: native gel electrophoresis of purified His-tagged keptin (self-association). As for the experimental part: Analysis of His-tagged keptin recombinant protein. Crude proteins were extracted from E. Coli transformed with a bacterial expression vector encoding a secreted form of keptin tagged with 10× histidine residues at its N-terminus. The extracts were affinity purified with nickel resins and subjected to SDS-PAGE analysis under denatured conditions. […] The purified protein was also analyzed for its biochemical properties by native gel electrophoresis. Both keptin dimers and monomers were detected in the native gel. Leptin (MW: 14 kDa) was used as a reference for a monomer protein with similar molecular weight to His-Keptin (11.4 kDa).

B1: His-tagged keptin recombinant protein (human mature keptin with N-terminal 10x histidine, from pET-hKeptin in E. coli) (other, UniProt P60985 23-99, looked up)
chain: ATLGGPEEESTIENYASRPEAFNTPFLNIDKLRSAFKADEFLNWHALFESIKRKLPFLNWDAFPKLKGLRSATPDAQ
notes: mature; also called His-keptin; His-Keptin; not shown: N-terminal 10x histidine tag encoded by vector pET-16b
Regarding B1, the binding result is on record as “binds”.
